Laboratory results as given in US20150284471A1 (Amgen, published 2015).
Where two headings read alike, the source gives them in different places.

T1: full-length wild type recombinant human LCAT protein that carries a His and Flag tag at the C-terminus (human, UniProt P04180 25-440)
T1 sequence: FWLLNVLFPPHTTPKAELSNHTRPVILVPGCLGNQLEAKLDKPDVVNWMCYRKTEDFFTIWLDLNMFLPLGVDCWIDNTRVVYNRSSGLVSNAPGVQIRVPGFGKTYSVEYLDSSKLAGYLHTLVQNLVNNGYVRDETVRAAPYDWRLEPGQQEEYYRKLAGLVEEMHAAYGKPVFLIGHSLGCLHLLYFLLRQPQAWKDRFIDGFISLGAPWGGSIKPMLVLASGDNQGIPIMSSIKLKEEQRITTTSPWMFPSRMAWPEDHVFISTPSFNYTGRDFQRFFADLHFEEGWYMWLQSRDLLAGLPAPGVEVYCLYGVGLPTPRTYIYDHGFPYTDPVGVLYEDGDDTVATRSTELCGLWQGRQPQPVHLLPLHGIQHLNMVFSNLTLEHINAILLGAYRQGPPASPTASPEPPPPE

T2: full-length wild type recombinant human LCAT (human, UniProt P04180 25-440)
T2 construct: also called huLCAT; hLCAT
T2 sequence: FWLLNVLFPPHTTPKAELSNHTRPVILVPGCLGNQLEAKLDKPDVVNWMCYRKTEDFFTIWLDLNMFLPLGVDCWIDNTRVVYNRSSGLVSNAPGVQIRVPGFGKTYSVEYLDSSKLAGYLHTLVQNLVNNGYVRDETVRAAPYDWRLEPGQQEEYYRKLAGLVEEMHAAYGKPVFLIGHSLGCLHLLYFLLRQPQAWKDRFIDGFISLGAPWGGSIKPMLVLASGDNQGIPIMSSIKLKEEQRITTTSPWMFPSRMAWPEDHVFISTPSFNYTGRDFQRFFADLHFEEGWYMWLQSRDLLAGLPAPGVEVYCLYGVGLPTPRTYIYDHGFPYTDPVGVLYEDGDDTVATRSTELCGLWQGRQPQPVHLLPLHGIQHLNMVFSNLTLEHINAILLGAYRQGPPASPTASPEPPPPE

T3: full-length wild type recombinant cynomolgus LCAT (cynomolgus monkey, UniProt Q08758 25-440 (Papio anubis entry))
T3 construct: also called cyno LCAT
T3 chain: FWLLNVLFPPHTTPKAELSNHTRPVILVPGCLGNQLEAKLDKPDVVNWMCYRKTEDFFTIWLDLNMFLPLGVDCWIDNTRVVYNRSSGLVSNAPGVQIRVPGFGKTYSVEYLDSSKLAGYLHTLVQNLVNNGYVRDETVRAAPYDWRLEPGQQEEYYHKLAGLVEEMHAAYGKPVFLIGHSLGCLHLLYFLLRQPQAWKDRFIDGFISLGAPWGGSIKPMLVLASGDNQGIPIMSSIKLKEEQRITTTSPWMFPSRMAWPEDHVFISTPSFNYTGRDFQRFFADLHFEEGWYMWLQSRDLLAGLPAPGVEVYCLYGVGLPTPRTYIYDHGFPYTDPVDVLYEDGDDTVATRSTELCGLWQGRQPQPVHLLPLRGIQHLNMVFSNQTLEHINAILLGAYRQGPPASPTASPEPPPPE


What was measured:
[1] = target: T1, full-length wild type recombinant human …; test: cell-based or functional assay
[2] = target: T2, full-length wild type recombinant human …; test: BIAcore 3000 SPR, antibody captured on goat anti-human IgG, LCAT as analyte, 1:1 fit
Method: (§1) Biosensor analysis was conducted at 25° C. in a HBS-EP buffer system (10 mM HEPES pH 7.4, 150 mM NaCl, 3 mM EDTA, 0.005% Surfactant P20) using a Biacore 3000 optical biosensor equipped with a CMS sensor chip. All reagents were kept at 4° C. prior to injection.
(§2) Goat anti-human IgG (30 mg/mL) (abcam) was immobilized (10000 RU) over flow cells 1-4 via standard amine coupling and followed by ethanolamine blocking. Each antibody (150 ng/mL) was captured (−100 RU) on a separate flow cell and analyzed simultaneously in sets of three. Flow cell 1 was used as the reference flow cell.
(§3) The data were fit to a 1:1 binding model (global Rmax) via Scrubber2 software. In some cases the highest concentrations were omitted to provide a better fit to the 1:1 binding model.

[3] = target: T3, full-length wild type recombinant …; test: BIAcore 3000 SPR, antibody captured on goat anti-human IgG, LCAT as analyte; cyno LCAT
Method: as §1, §2, §3

[4] = target: T3, full-length wild type recombinant …; test: BIAcore 3000 SPR, antibody captured on goat anti-human IgG, LCAT as analyte, 1:1 fit
Method: as §1, §2, §3

[5] = target: T2, full-length wild type recombinant human …; test: cell-based or functional assay
[6] = target: T2, full-length wild type recombinant human …; test: cell-based or functional assay; remark: listed apart in the source
[7] = target: T2, full-length wild type recombinant human …; test: Binding Affinity (nM), Table 10; method not restated (BIAcore of Example 3 presumed)
[8] = target: T3, full-length wild type recombinant …; test: as above
[9] = target: T2, full-length wild type recombinant human …; test: Binding Affinity (nM), Table 12; method not restated (BIAcore of Example 3 presumed)
[10] = target: T3, full-length wild type recombinant …; test: as above
[11] = target: T2, full-length wild type recombinant human …; test: cell-based or functional assay; remark: listed apart in the source

Binder | Kd [9] | Kd [10] | Activity [11] | also measured
18E5 (antibody, human IgG2, kappa, V domains shown) VH: not shown VL: EIVLTQSPGTLSLSPGERATLSCRASQSVSGSYLTWYQQKPGQAPRLLIYGASSRATGIPDRFSGSGSGTDFTLTISRLEPEDFAMYYCQQYGGSPPFTFGPGTKVDIKR | – | – | – | LCAT Activity (fold the vehicle control activity) [1]: 2.5 fold; Kd [2]: 1.01 nM
25B7 (antibody, V domains shown, The heavy chain entry ends after CH1 with a tag remnant) VH: EVQLLESGGGLVQPGGSLRLSCAASGFTFRSYAMNWVRQAPGKGLEWVSTISGSGGSTHYADSVKGRFTISRDNSKNTLYLQLSSLRAEDTAVYYCAKGIAAADYYYYYGMDVWGQGTTVTVSS VL: SYEVTQPPSVSVSPGQTASITCSGDKLGDKNACWYQQRPGQSPVLVIYQNSKRPSGIPERFSGSNSGNTATLTISGTQAMDEADYYCQAWDSSTVFGGGTRLEVLG | – | – | – | Kd [3]: 1.2 nM; Kd [2]: 2.24 nM; Kd [4]: 1.02 nM
27C3 (antibody, human IgG2, lambda, V domains shown, Incompletely N-glycosylated at Asn40 (AHo) of CDRH1) VH: QVQLQESGPGLVKPSQTLSLTCTVSGASISSGGYNWSWIRQHPGKGLEWIGYIYYSGSTYYNPSLKSRVTISVDTSKNQFSLKLSSVTAADTAVYYCARERGYCSSTSCSRVMDVWGQGTTVTVSS VL: SSELTQDPAVSVALGQTVRITCQGDSLRSYYASWYQQKPGQAPVLVIYGKNNRPSGIPDRFSGSSSGNTASLTITGAQAEDEADYYCNSRDNIGNHQVFGGGTKLTVLG | – | – | – | Activity [5]: 100%; EC50 (read off the curve) [6]: ~4 mgAb/mL Plasma; Kd [7]: 1.15 nM; Kd [8]: 128 nM; Kd [2]: 1.15 nM; Kd [4]: 128 nM
27C3(S42A, S131T, V135I, M136I/I112V) (antibody, human IgG2, lambda, V domains shown, IgG2 lambda; The mutations are already in the entries) VH: QVQLQESGPGLVKPSQTLSLTCTVSGASISSGGYNWAWIRQHPGKGLEWIGYIYYSGSTYYNPSLKSRVTISVDTSKNQFSLKLSSVTAADTAVYYCARERGYCSSTTCSRIIDVWGQGTTVTVSS VL: SSELTQDPAVSVALGQTVRITCQGDSLRSYYASWYQQKPGQAPVLVIYGKNNRPSGIPDRFSGSSSGNTASLTITGAQAEDEADYYCNSRDNVGNHQVFGGGTKLTVLG | 3 nM | 198 nM | 69% | –
27C3(S42A, S133T, M136I/N107G) (antibody, human IgG2, lambda, V domains shown, IgG2 lambda; The mutations are already in the entries) VH: QVQLQESGPGLVKPSQTLSLTCTVSGASISSGGYNWAWIRQHPGKGLEWIGYIYYSGSTYYNPSLKSRVTISVDTSKNQFSLKLSSVTAADTAVYYCARERGYCSSTSCTRVIDVWGQGTTVTVSS VL: SSELTQDPAVSVALGQTVRITCQGDSLRSYYASWYQQKPGQAPVLVIYGKNNRPSGIPDRFSGSSSGNTASLTITGAQAEDEADYYCGSRDNIGNHQVFGGGTKLTVLG | 0.4 nM | 62 nM | 73% | –
27C3(S42A, M136I/N107G, I112V) (antibody, human IgG2, lambda, V domains shown, IgG2 lambda; The mutations are already in the entries) VH: QVQLQESGPGLVKPSQTLSLTCTVSGASISSGGYNWAWIRQHPGKGLEWIGYIYYSGSTYYNPSLKSRVTISVDTSKNQFSLKLSSVTAADTAVYYCARERGYCSSTSCSRVIDVWGQGTTVTVSS VL: SSELTQDPAVSVALGQTVRITCQGDSLRSYYASWYQQKPGQAPVLVIYGKNNRPSGIPDRFSGSSSGNTASLTITGAQAEDEADYYCGSRDNVGNHQVFGGGTKLTVLG | 1.2 nM | 190 nM | 70% | –
27C3(S42A, S131T, V135I, M136I/N107G, I112V) (antibody, human IgG2, lambda, V domains shown, IgG2 lambda; The mutations are already in the entries) VH: QVQLQESGPGLVKPSQTLSLTCTVSGASISSGGYNWAWIRQHPGKGLEWIGYIYYSGSTYYNPSLKSRVTISVDTSKNQFSLKLSSVTAADTAVYYCARERGYCSSTTCSRIIDVWGQGTTVTVSS VL: SSELTQDPAVSVALGQTVRITCQGDSLRSYYASWYQQKPGQAPVLVIYGKNNRPSGIPDRFSGSSSGNTASLTITGAQAEDEADYYCGSRDNVGNHQVFGGGTKLTVLG | 34 nM | 88 nM | 70% | –
27C3(S42A, S131T, M136I/N107G, I112V) (antibody, human IgG2, lambda, V domains shown, IgG2 lambda; The mutations are already in the entries) VH: QVQLQESGPGLVKPSQTLSLTCTVSGASISSGGYNWAWIRQHPGKGLEWIGYIYYSGSTYYNPSLKSRVTISVDTSKNQFSLKLSSVTAADTAVYYCARERGYCSSTTCSRVIDVWGQGTTVTVSS VL: SSELTQDPAVSVALGQTVRITCQGDSLRSYYASWYQQKPGQAPVLVIYGKNNRPSGIPDRFSGSSSGNTASLTITGAQAEDEADYYCGSRDNVGNHQVFGGGTKLTVLG | 1.3 nM | 181 nM | 89% | –
27C3(S42A, S133T, M136I/I112V) (antibody, human IgG2, lambda, V domains shown, IgG2 lambda; The mutations are already in the entries) VH: QVQLQESGPGLVKPSQTLSLTCTVSGASISSGGYNWAWIRQHPGKGLEWIGYIYYSGSTYYNPSLKSRVTISVDTSKNQFSLKLSSVTAADTAVYYCARERGYCSSTSCTRVIDVWGQGTTVTVSS VL: SSELTQDPAVSVALGQTVRITCQGDSLRSYYASWYQQKPGQAPVLVIYGKNNRPSGIPDRFSGSSSGNTASLTITGAQAEDEADYYCNSRDNVGNHQVFGGGTKLTVLG | 0.3 nM | 88 nM | 46% | –
27C3(S42A, S131T, M136I/I112V) (antibody, human IgG2, lambda, V domains shown, IgG2 lambda; The mutations are already in the entries) VH: QVQLQESGPGLVKPSQTLSLTCTVSGASISSGGYNWAWIRQHPGKGLEWIGYIYYSGSTYYNPSLKSRVTISVDTSKNQFSLKLSSVTAADTAVYYCARERGYCSSTTCSRVIDVWGQGTTVTVSS VL: SSELTQDPAVSVALGQTVRITCQGDSLRSYYASWYQQKPGQAPVLVIYGKNNRPSGIPDRFSGSSSGNTASLTITGAQAEDEADYYCNSRDNVGNHQVFGGGTKLTVLG | 3 nM | 198 nM | 65% | –
27C3(S42A, S131T, M136I/N107G) (antibody, human IgG2, lambda, V domains shown, IgG2 lambda; The mutations are already in the entries) VH: QVQLQESGPGLVKPSQTLSLTCTVSGASISSGGYNWAWIRQHPGKGLEWIGYIYYSGSTYYNPSLKSRVTISVDTSKNQFSLKLSSVTAADTAVYYCARERGYCSSTTCSRVIDVWGQGTTVTVSS VL: SSELTQDPAVSVALGQTVRITCQGDSLRSYYASWYQQKPGQAPVLVIYGKNNRPSGIPDRFSGSSSGNTASLTITGAQAEDEADYYCGSRDNIGNHQVFGGGTKLTVLG | 2.8 nM | 226 nM | 65% | –
27C3(S42A, S133T, M136I/N107G, I112V) (antibody, human IgG2, lambda, V domains shown, IgG2 lambda; The mutations are already in the entries) VH: QVQLQESGPGLVKPSQTLSLTCTVSGASISSGGYNWAWIRQHPGKGLEWIGYIYYSGSTYYNPSLKSRVTISVDTSKNQFSLKLSSVTAADTAVYYCARERGYCSSTSCTRVIDVWGQGTTVTVSS VL: SSELTQDPAVSVALGQTVRITCQGDSLRSYYASWYQQKPGQAPVLVIYGKNNRPSGIPDRFSGSSSGNTASLTITGAQAEDEADYYCGSRDNVGNHQVFGGGTKLTVLG | 0.5 nM | 8 nM | 83% | –
27C3(S42A, S131T, V135I, M136I/N107G) (antibody, human IgG2, lambda, V domains shown, IgG2 lambda; The mutations are already in the entries) VH: QVQLQESGPGLVKPSQTLSLTCTVSGASISSGGYNWAWIRQHPGKGLEWIGYIYYSGSTYYNPSLKSRVTISVDTSKNQFSLKLSSVTAADTAVYYCARERGYCSSTTCSRIIDVWGQGTTVTVSS VL: SSELTQDPAVSVALGQTVRITCQGDSLRSYYASWYQQKPGQAPVLVIYGKNNRPSGIPDRFSGSSSGNTASLTITGAQAEDEADYYCGSRDNIGNHQVFGGGTKLTVLG | 2.8 nM | 226 nM | 70% | –
